In article PMC8746315, “Biophysical Characterization of Novel DNA Aptamers against K103N/Y181C Double Mutant HIV-1 Reverse Transcriptase”:

target: HIV-1 reverse transcriptase, wild type (HIV-1, UniProt P04585;P04585 588-1147;588-1027); experiment: SPR; SPR: 10 mM HEPES pH 7.5, 150 mM NaCl, 80 mM KCl, 5 mM MgCl2, 25 C, RT on NTA chip; NMR: 10 mM Tris-d11 pD 7.6, 200 mM KCl, 1.5 mM sodium azide, 4 mM MgCl2; inhibition assay 25 C, 30 min; details: protein: recombinant; (NTA chip capture); copies: 1;1

Row | Binder | Kd [nM]
1 | CACACTAAGGGAGTAGGAATCCGCGGTCACAATGTTCCTG (ssDNA) [KY22] | 1040
2 | AGTAAGACTATAATTCAGTCCTCATTGATTTCCCACATCG (ssDNA) [KY1] | 2170
3 | CTATAGGGGGTTGCATCTTAGACATTAATGTTCATTTACA (ssDNA) [KY23] | 55.2
4 | CCAGAAAGCTCGGGTTCGTTCCACAAATAACACTTGCCC (ssDNA) [KY28] | 1020
5 | GTGCAAGCGTACGAAGGGATAATTCACTCTAGGAGCTTCT (ssDNA) [KY44] | 2150
